Results taken from a protein production outcome set (Wang et al. 2014).

Assay: label from the status in PepcDB records

Sequence	protein production
PSKKYVVDIWSDFVCPWCWIAKRRFENALNRSGMQDDVQVNVRAYRLAANQAPEPMIGALKRKLGNPASADSMMSTVSKYGRADGLDYRFDTMMFGDTADAHILVKAVEDTAVKKRLVEALYEQSTSHGRSLFDRSSLEAIAREVGVSDESIQLAWSSVELRNEMKDDESFAAQLGSGVPLFVFDSSFSVSGAQPDAVFLEALNKMVANSNPE	not failed
PSVQVPQSTILYASDGSKLGETNYGEKRYWVPLKDMNPTIVKATVAIEDQNFYDHHGFDYKRMAGAALADLKAFAKVQGASTITQQYARNLYLEHDKTWKRKWNEAFYTIRLEQNYSKDEILEGYLNTIYYGHGAYGIEAASRLYFGKHAKNLTDAEAALLAGIPKGPSGY	failed
QAQITGRPEWIWLALGTALMGLGTLYFLVKGMGVSDPDAKKFYAITTLVPAIAFTMYLSMLLGYGLTMVPFGGEQNPIYWARYADWLFTTPLLLLDLALLVDADQGTILALVGADGIMIGTGLVGALTKVYSYRFVWWAISTAAMLYILYVLFFGFTSKAESMRPEVASTFKVLRNVTVVLWSAYPVVWLIGSEGAGIVPLNIETLLFMVLDVSAKVGFGLILLRSRAIFGEAEAPEPSAGDGAAATS	not failed
QEYILALADVPSSPYGVKIIELSQTTAKVSFNKPDSHGGVPIHHYQVDVKEVASEIWKIVRSHGVQTMVVLNNLEPNTTYEIRVAAVNGKGQGDYSKIEIFQTLPV	not failed
QGKLLELVTFVPTEYADAVRQALWQAGAGRLGHYDCCSFSHAGTGTFRAAEGANPFVGAISELHHEAEERISLVLPAYRQGTVLQALHAAHPYELPAVSLIPLANDHPSAGGGIVGDLPSPISEREMLLHIKEVFGLKVLSHSAWRERPLRRMAICGGSGAFMWRRAAQEGADLFLTGEAKYNDFFDAGEHLLLVTIGHYESEEVANELFMRIISQKFPTFATHKSSVATNPVNYL	failed
QGYQVTKLYVMDRDGTNARLLTEGFDRDVQNPTFTADGEHIVFRYVDEGSTKIGRVALDGGRRVVAEHVGGTSIGRPYTSGSFSLASNGRVAFTHATPQRPADVAVAQAGREAQVLTALNDDLFGQVDLGSVEQITYESSHDGRTIEGWIVTPPGFDASQEYPLVLEIHGGPFASYGPYFSAEVQLYAAAGYVVLYTNPRGSTSYGQDFGNAIHHDYPGHDYDDLMSGVDAVLERGYVDADRLYVTGGSGGGVLTSWIVGHTDRFRAAVAAKPVINWYSWALTADMYPYGVKYWFPGLPWNHEEHYMDRSPLSYVDNVTTPTMLLTGANDYRTPMSESEQFYQALKLREVETALVRVPGASHSIAARPSHLAAKAAHVLEWFRRHGGPTPEQ	failed
QIPAERDREPSKLKRSYSSPDITQAIQEEEKRKPTVTPTVNRENKPTCYPKAEISRLSASQIRNLNPVFGGSGPALTGLRNLGNTCYMNSILQCLCNAPHLADYFNRNCYQDDINRSNLLGHKGEVAEEFGIIMKALWTGQYRYISPKDFKITIGKINDQFAGYSQQDSQELLLFLMDGLHEDLNKADN	failed
QISTPVIRVWDGILALPIIGTLDSSRTQVVMESLLQEIVDTGSSIAILDISGVPAVDSLVAQHLIKTVSATRLMGAECIISGIRPEIAQTVVHLGIDLSTIITKATLASALKTA	failed
QKRPLIMIGGSSSTRTDFDDIVRSLNEQQHHPLITLTVKANQKLAFKEKRVENTNLNDALIVIFFEDSTDSTENIMTQTNGLAKAIRYLQRHQHLTTANALGYSNGGLIWSRYLAGLSSSKPLAVHDLMLIGTPFLGTDAAH	failed
QLGGDMKTIAIADRTGEYEQLFKENDEFRFVHAEKTAEEYRKMGADKSGIDAVLEIRQDLLEDPNAVAIYGYKQLPASVSNHISRILSDYLSDKKIASYNIPDIKQILADSKIELSVHTYKWSEDGTNERTSGELASGIS	not failed
QLIDIGVNLTNSSFHDQQAAIVERALEAGVTQMLLTGTSLAVSEQALELCQQLDASGAHLFATAGVHPHDAKAWDTDSERQLRLLLSEPRVRAVGECGLDFNRDFSPRPLQEKALEAQLTLAAQLRLPVFLHERDASERLLAILKDYRDHLTGAVVHCFTGEREALFAYLDLDLHIGITGWICDERRGTHLHPLVGNIPEGRLMLESDAPYLLPRSLRPKPKSGRNEPAFLPEVLREVALHRGESAEHTAAHTTATARDFFQLP	not failed
QQAIADQLLEMILQSQDLHNAYRLVVEGLQRGLGVDRVLLVQNAVFPNRQSRLVAQAIAPARDIMLLDEPCADCRWLHLLGQLPHYGLWTVWEGEGEFVQLDPVQGEFCRTLGIKSLLHLPLVINQRHWGVLSLQYLHQARPWPLEDQQFAQRIAHLFCLGLMKTELWIHCQNHKNALQTVVAEGQ	failed
